Reference: patent US20220380471A1
Residue numbers refer to the chain shown, from its start.

Columns and labels:
[1] = target: T1, rat B7H3-His (rat) (UniProt Q7TPB4); assay: ELISA; row Rat; well 1 of 3
T1 sequence (looked up): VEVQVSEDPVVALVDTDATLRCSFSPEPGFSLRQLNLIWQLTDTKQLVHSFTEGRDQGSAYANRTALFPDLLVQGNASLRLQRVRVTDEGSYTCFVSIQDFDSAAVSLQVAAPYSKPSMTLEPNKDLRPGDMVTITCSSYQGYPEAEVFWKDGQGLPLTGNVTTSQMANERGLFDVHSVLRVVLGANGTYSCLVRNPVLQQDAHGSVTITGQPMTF

[2] = target: T1, rat B7H3-His (rat); assay: ELISA; row Rat; well 2 of 3
[3] = target: T1, rat B7H3-His (rat); assay: ELISA; row Rat; well 3 of 3
[4] = target: human B7H3 (human) (UniProt Q5ZPR3); assay: ELISA; row Human; well 1 of 3
[5] = target: human B7H3 (human) (UniProt Q5ZPR3); assay: ELISA; row Human; well 2 of 3
[6] = target: human B7H3 (human) (UniProt Q5ZPR3); assay: ELISA; row Human; well 3 of 3
[7] = target: HN3-Fc; assay: ELISA; row HN3-Fc; well 1 of 3
[8] = target: HN3-Fc; assay: ELISA; row HN3-Fc; well 2 of 3
[9] = target: HN3-Fc; assay: ELISA; row HN3-Fc; well 3 of 3
[10] = target: monkey B7H3-His (monkey); assay: ELISA; row Monkey; well 1 of 3
[11] = target: monkey B7H3-His (monkey); assay: ELISA; row Monkey; well 2 of 3
[12] = target: monkey B7H3-His (monkey); assay: ELISA; row Monkey; well 3 of 3
[13] = target: recombinant human B7H3-Fc protein (human) (UniProt Q5ZPR3); assay: ELISA; row B7H3-Fc; well 1 of 3
[14] = target: recombinant human B7H3-Fc protein (human) (UniProt Q5ZPR3); assay: ELISA; row B7H3-Fc; well 2 of 3
[15] = target: recombinant human B7H3-Fc protein (human) (UniProt Q5ZPR3); assay: ELISA; row B7H3-Fc; well 3 of 3
[16] = target: PD-L1; assay: ELISA; row PDL1-Fc; well 1 of 3
[17] = target: PD-L1; assay: ELISA; row PDL1-Fc; well 2 of 3
[18] = target: PD-L1; assay: ELISA; row PDL1-Fc; well 3 of 3
[19] = target: B7H3 R&D; assay: ELISA; row B7H3 R&D; well 1 of 3
[20] = target: B7H3 R&D; assay: ELISA; row B7H3 R&D; well 2 of 3
[21] = target: B7H3 R&D; assay: ELISA; row B7H3 R&D; well 3 of 3
[22] = target: hB7H3-His (human) (UniProt Q5ZPR3); assay: ELISA; row B7H3-his; well 1 of 3
[23] = target: hB7H3-His (human) (UniProt Q5ZPR3); assay: ELISA; row B7H3-his; well 2 of 3
[24] = target: hB7H3-His (human) (UniProt Q5ZPR3); assay: ELISA; row B7H3-his; well 3 of 3
[25] = target: T2, mouse B7H3-His (mouse) (UniProt Q8VE98); assay: ELISA; row Mouse-2 (mB7H3); well 1 of 3
T2 sequence (looked up): T1 sequence (looked up) with R33A, A62S, D131N, L156V, M214L

[26] = target: T2, mouse B7H3-His (mouse); assay: ELISA; row Mouse-2 (mB7H3); well 2 of 3
[27] = target: T2, mouse B7H3-His (mouse); assay: ELISA; row Mouse-2 (mB7H3); well 3 of 3
[28] = target: T2, mouse B7H3-His (mouse); assay: ELISA; row Mouse-1 (msB7H3); well 1 of 3
[29] = target: T2, mouse B7H3-His (mouse); assay: ELISA; row Mouse-1 (msB7H3); well 2 of 3
[30] = target: T2, mouse B7H3-His (mouse); assay: ELISA; row Mouse-1 (msB7H3); well 3 of 3
[31] = target: Irrelevant antigen; assay: ELISA; row Irrelevant antigen; well 1 of 3
[32] = target: Irrelevant antigen; assay: ELISA; row Irrelevant antigen; well 2 of 3
[33] = target: Irrelevant antigen; assay: ELISA; row Irrelevant antigen; well 3 of 3

Sequence of PD-L1 (Q9NZQ7 19-238): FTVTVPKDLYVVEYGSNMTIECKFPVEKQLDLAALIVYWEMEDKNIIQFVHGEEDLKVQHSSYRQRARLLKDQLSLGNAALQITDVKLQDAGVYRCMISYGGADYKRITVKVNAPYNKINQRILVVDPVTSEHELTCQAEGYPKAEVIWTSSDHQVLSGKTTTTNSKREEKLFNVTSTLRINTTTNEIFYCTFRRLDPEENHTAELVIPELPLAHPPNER
Sequence of human B7H3 (human) (Q5ZPR3 29-466 limits assumed): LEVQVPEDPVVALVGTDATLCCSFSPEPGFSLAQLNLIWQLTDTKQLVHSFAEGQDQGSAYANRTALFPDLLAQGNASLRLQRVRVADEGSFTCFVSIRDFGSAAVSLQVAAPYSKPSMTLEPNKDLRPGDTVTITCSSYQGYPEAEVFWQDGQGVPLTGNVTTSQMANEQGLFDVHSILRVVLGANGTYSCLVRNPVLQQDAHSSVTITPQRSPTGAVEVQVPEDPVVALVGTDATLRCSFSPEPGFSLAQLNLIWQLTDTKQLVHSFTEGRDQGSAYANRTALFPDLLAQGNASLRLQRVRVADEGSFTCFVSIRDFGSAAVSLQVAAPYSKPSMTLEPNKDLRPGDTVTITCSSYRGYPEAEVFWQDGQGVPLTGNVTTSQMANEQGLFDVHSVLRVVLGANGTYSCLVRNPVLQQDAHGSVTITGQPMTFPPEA
Sequence of recombinant human B7H3-Fc protein (human) (Q5ZPR3 29-466 limits assumed): as above
Sequence of hB7H3-His (human) (Q5ZPR3 29-461 limits assumed): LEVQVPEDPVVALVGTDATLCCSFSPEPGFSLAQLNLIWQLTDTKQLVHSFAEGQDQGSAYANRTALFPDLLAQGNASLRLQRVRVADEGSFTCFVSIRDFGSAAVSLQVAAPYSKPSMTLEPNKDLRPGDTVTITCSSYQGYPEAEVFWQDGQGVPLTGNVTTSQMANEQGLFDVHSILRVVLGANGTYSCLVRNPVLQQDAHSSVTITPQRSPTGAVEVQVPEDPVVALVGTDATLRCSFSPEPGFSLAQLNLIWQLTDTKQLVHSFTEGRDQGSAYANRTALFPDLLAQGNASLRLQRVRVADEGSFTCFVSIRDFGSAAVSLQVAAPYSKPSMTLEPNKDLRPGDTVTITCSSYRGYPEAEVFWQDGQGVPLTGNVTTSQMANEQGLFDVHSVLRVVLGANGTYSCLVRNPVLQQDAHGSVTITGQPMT

- ELISA reading (name not given) [1]: 0.981
- ELISA reading (name not given) [2]: 1.01
- ELISA reading (name not given) [3]: 1.06
- ELISA reading (name not given) [4]: 1.48
- ELISA reading (name not given) [5]: 1.57
- ELISA reading (name not given) [6]: 1.44
- ELISA reading (name not given) [7]: 0.0545
- ELISA reading (name not given) [8]: 0.0541
- ELISA reading (name not given) [9]: 0.0521
- ELISA reading (name not given) [10]: 1.59
- ELISA reading (name not given) [11]: 1.59
- ELISA reading (name not given) [12]: 1.65
- ELISA reading (name not given) [13]: 1.61
- ELISA reading (name not given) [14]: 1.59
- ELISA reading (name not given) [15]: 1.59
- ELISA reading (name not given) [16]: 0.0652
- ELISA reading (name not given) [17]: 0.0812
- ELISA reading (name not given) [18]: 0.0749
- ELISA reading (name not given) [19]: 0.991
- ELISA reading (name not given) [20]: 0.993
- ELISA reading (name not given) [21]: 1.07
- ELISA reading (name not given) [22]: 0.811
- ELISA reading (name not given) [23]: 0.812
- ELISA reading (name not given) [24]: 0.813
- ELISA reading (name not given) [25]: 0.157
- ELISA reading (name not given) [26]: 0.145
- ELISA reading (name not given) [27]: 0.184
- ELISA reading (name not given) [28]: 0.14
- ELISA reading (name not given) [29]: 0.156
- ELISA reading (name not given) [30]: 0.133
- ELISA reading (name not given) [31]: 0.0531
- ELISA reading (name not given) [32]: 0.0634
- ELISA reading (name not given) [33]: 0.0624
Substance: commercial anti-human B7H3 hybridoma antibody 376.96
